Experimental data as given in article PMC10269683.

Biological target: CcpA (Streptococcus pneumoniae D39) (UniProt A0A0H2ZQ65)
Experiment: EMSA
Settings: EMSA: 10 mM Tris-HCl pH 7.4, 1 mM DTT, 1 mM EDTA, 50 mM KCl, 5% glycerol, 50 ug/mL BSA, 0.05% NP-40, 20 min 37 C; footprinting binding 30 min 25 C

GCTACAAACTGTTCCAATTTAACTGTGTTTTTCATAATAAAATCTCCTAAAATGTTTTTTCTTGTAAGCTAACTTACAAAAACCATTATACAAAATGGAATTTCGTTTTAGATAAAATTCTCTCAACTGTCATTTTTTTCTCCCAAAGTGTACTTTTTTAAGAAAAAAGCCGGGAAAATTCCCAGCTTTGCTATTATATTGATCCCAGCAGGATTCGAACCTGCGACCGTTCGCTTAGAAGGCGAATGCTCTATC (double strand) [P240 (PcomCDE)]
binding: binds
